Assay results from paper PMC10321576 (2023).
Blank lines part the entries; values can stand above or below the binder they belong to. Bridge positions count the residues as written; N and C are the ends. Square brackets hold non-standard residues; d marks the D form. Ends that are not written are not given here. Lys(Me3) = C[N+](C)(C)CCCC[C@H](N)C(=O)O

B1: KDM7B (PHF8, JHDM1F) dual domain (PHD-JmjC) (domain or fragment)
chain: MASVPVYCLCRLPYDVTRFMIECDMCQDWFHGSCVGVEEEKAADIDLYHCPNCEVLHGPSIMKKRRGSSKGHDTHKGKPVKTGSPTFVRELRSRTFDSSDEVILKPTGNQLTVEFLEENSFSVPILVLKKDGLGMTLPSPSFTVRDVEHYVGSDKEIDVIDVTRQADCKMKLGDFVKYYYSGKREKVLNVISLEFSDTRLSNLVETPKIVRKLSWVENLWPEECVFERPNVQKYCLMSVRDSYTDFHIDFGGTSVWYHVLKGEKIFYLIRPTNANLTLFECWSSSSNQNEMFFGDQVDKCYKCSVKQGQTLFIPTGWIHAVLTPVDCLAFGGNFLHSLNIEMQLKAYEIEKRLSTADLFRFPNFETICWYVGKHILDIFRGLRENRRHPASYLVHGGKALNLAFRAWTRKEALPDHEDEIPETVRTVQLIKDLAREIRLVEDIFQQN

Tests used:
[1] = biological target: T1, KDM7A (KIAA1718) PHD-finger; test: ITC
T1 chain: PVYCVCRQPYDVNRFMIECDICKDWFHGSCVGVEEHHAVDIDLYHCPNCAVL

[2] = biological target: KDM7A (KIAA1718) dual domain; test: ITC
[3] = biological target: SPIN1 triple tudor domain; test: BLI
[4] = biological target: T1, KDM7A (KIAA1718) PHD-finger; test: BLI
DIDO1 PHD-finger = biological target: T2, DIDO1 PHD-finger; test: BLI
T2 chain: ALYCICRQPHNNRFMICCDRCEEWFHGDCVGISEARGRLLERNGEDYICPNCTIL

[5] = biological target: KDM7A (KIAA1718) dual domain; test: BLI
TAF3 PHD-finger [6] = biological target: T3, TAF3 PHD-finger; test: BLI
T3 chain: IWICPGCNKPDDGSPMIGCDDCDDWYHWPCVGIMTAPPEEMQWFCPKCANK

KDM7C (PHF2) PHD-finger [7] = biological target: T4, KDM7C (PHF2) PHD-finger; test: BLI
T4 chain: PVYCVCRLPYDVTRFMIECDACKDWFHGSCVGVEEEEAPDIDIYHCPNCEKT

ING2 PHD-finger [8] = biological target: T5, ING2 PHD-finger; test: BLI
T5 chain: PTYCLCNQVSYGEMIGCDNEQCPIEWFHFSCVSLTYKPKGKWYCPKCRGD

[9] = biological target: B1
[10] = biological target: SPIN1 triple tudor domain
[11] = biological target: T1, KDM7A (KIAA1718) PHD-finger
[12] = biological target: KDM7A (KIAA1718) dual domain
TAF3 PHD-finger [13] = biological target: T3, TAF3 PHD-finger
KDM7C (PHF2) PHD-finger [14] = biological target: T4, KDM7C (PHF2) PHD-finger
KDM5A PHD3 PHD-finger = biological target: T6, KDM5A PHD3 PHD-finger
T6 chain: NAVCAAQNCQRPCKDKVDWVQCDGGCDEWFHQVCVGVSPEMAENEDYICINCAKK

ING2 PHD-finger [15] = biological target: T5, ING2 PHD-finger
[16] = biological target: T1, KDM7A (KIAA1718) PHD-finger; test: ITC
KDM7B PHD-finger [17] = biological target: T7, KDM7B PHD-finger (UniProt Q9UPP1-2 1-447); test: ITC; His-Trx-tagged PHD
T7 chain: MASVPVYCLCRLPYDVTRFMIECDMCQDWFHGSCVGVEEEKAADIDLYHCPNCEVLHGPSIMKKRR

KDM7B PHD-finger [18] = biological target: T7, KDM7B PHD-finger
OC3 = test: ITC

Sequence of KDM7A (KIAA1718) dual domain (chain, as listed by the source): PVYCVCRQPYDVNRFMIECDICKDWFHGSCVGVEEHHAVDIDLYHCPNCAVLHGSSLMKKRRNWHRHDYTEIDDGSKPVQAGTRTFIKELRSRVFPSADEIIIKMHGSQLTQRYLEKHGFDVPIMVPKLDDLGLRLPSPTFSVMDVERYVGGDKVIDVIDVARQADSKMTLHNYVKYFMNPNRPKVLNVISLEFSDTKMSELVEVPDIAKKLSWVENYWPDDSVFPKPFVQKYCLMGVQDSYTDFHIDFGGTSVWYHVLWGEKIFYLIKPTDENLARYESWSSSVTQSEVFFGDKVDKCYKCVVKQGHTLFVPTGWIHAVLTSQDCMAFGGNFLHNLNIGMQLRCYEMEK
Sequence of SPIN1 triple tudor domain (chain, as listed by the source): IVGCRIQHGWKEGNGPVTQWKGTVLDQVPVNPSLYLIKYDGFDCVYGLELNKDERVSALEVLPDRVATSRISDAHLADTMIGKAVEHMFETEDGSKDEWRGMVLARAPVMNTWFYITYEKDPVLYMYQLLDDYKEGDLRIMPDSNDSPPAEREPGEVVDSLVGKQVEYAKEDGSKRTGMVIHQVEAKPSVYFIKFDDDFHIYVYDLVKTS

Binder: {CH2CO}-YYLTHPYPSVFRTC (thioether N-14) [OC9, de novo cyclic peptide from mRNA display]
Kd [1]: 31.6 nM
Kd [2]: 31.6 nM
Kd [3]: > 1000 nM
Kd [4]: 20 nM
Kd (DIDO1 PHD-finger): > 1000 nM
Kd [5]: 39.8 nM
Kd (TAF3 PHD-finger [6]): > 1000 nM
Kd (KDM7C (PHF2) PHD-finger [7]): 1 nM
Kd (ING2 PHD-finger [8]): > 1000 nM
IC50 [9]: 100 nM
IC50 [10]: > 2000 nM
IC50 [11]: 63.1 nM
IC50 [12]: 126 nM
IC50 (TAF3 PHD-finger [13]): > 5.01 µM
IC50 (KDM7C (PHF2) PHD-finger [14]): 25.1 nM
IC50 (KDM5A PHD3 PHD-finger): > 5.01 µM
IC50 (ING2 PHD-finger [15]): > 5.01 µM
Kd [16]: 33 nM
Kd (KDM7B PHD-finger [17]): 8 nM

Binder: B1
Kd (OC3): 163 nM

Further lines, results first:

IC50 (KDM7B PHD-finger [18]): 20 nM
Binder: YYLT[dA]PYPSVFRTC (ends and bridges not checked) [OC9 with H5 replaced with D-alanine]

IC50 (KDM7B PHD-finger [18]): 45 nM
Binder: YYL[dA]HPYPSVFRTC (ends and bridges not checked) [OC9 with T4 replaced with D-alanine]

IC50 (KDM7B PHD-finger [18]): 234 nM
Binder: YYLTHPYPS[Lys(Me3)]FRTC (ends and bridges not checked) [OC9 V10Kme3]
